# Experimental data from US20080249606A1 (published 2008).
# B1: tissue-type plasminogen activator (tPA, Actilyse, Boehringer-Ingelheim) (enzyme, UniProt P00750 36-562, looked up)
# chain: SYQVICRDEKTQMIYQQHQSWLRPVLRSNRVEYCWCNSGRAQCHSVPVKSCSEPRCFNGGTCQQALYFSDFVCQCPEGFAGKCCEIDTRATCYEDQGISYRGTWSTAESGAECTNWNSSALAQKPYSGRRPDAIRLGLGNHNYCRNPDRDSKPWCYVFKAGKYSSEFCSTPACSEGNSDCYFGNGSAYRGTHSLTESGASCLPWNSMILIGKVYTAQNPSAQALGLGKHNYCRNPDGDAKPWCHVLKNRRLTWEYCDVPSCSTCGLRQYSQPQFRIKGGLFADIASHPWQAAIFAKHRRSPGERFLCGGILISSCWILSAAHCFQERFPPHHLTVILGRTYRVVPGEEEQKFEVEKYIVHKEFDDDTYDNDIALLQLKSDSSRCAQESSVVRTVCLPPADLQLPDWTECELSGYGKHEALSPFYSERLKEAHVRLYPSSRCTSQHLLNRTVTDNMLCAGDTRSGGPQANLHDACQGDSGGPLVCLNDGRMTLVGIISWGLGCGQKDVPGVYTKVTNYLDWIRDNMRP
# notes: Bought drug product
# What was measured:
# [1] = target: T1, Blocking Reagent (catalogue number 11112589001, Roche Diagnostics) immobilized in ELISA wells; test: ELISA, Blocking Reagent on Greiner Microlon high-binding plate
# T1 construct: One molecule for all four plate types; The plate is named under assay in each row
# [2] = target: T1, Blocking Reagent (catalogue number …); test: ELISA, Blocking Reagent on Costar 2595 plate
# [3] = target: T1, Blocking Reagent (catalogue number …); test: ELISA, Blocking Reagent on Costar 9102 plate, tPA concentration series in PBS pH 7.3 with 10 mM εACA
# [4] = target: T2, BSA incubated overnight with dextran sulphate 500,000 Da (DXS500k) (bovine, UniProt P02769 25-607); test: ELISA, protein/DXS500k mixture immobilized on Greiner Microlon plate, tPA in 10 mM εACA, detection with antibody 374b
# T2 construct: Same protein as m3, misfolded by contact with DXS500k (a non-protein polymer present in the mixture); also called BSA with DXS500k; DXS500k-protein mixture
# [5] = target: T1, Blocking Reagent (catalogue number …); test: ELISA, Blocking Reagent on Costar 9102 plate (second experiment, FIG. 2M)
# [6] = target: T1, Blocking Reagent (catalogue number …); test: ELISA, Blocking Reagent on Nunc Immobilizer Amino plate
# T2 sequence (P02769 25-607 limits assumed): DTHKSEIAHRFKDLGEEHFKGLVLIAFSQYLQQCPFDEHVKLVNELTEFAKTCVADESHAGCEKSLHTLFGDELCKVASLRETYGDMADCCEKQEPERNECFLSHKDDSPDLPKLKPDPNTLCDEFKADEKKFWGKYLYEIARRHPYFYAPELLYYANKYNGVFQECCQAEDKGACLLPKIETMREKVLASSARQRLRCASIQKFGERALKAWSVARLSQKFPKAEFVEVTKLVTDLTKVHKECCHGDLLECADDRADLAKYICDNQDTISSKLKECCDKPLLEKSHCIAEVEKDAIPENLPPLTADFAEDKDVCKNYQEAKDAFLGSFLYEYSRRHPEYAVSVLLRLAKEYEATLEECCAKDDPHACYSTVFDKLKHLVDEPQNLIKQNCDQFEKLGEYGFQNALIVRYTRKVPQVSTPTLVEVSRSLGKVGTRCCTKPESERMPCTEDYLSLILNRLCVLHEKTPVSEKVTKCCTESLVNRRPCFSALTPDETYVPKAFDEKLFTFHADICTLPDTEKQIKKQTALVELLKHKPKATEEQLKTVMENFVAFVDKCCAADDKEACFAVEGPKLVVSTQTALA
binder,measurement,setting,value
B1,Kd,[1],23000 nM
same,Kd,[2],30 nM
same,Kd,[3],0.6 nM
same,factor of increase of tPA binding against the protein incubated with buffer only,[4],1.3 fold
same,Kd,[5],~0.5 nM
same,Kd,[6],39 nM
